“And” between values parts separate entries of the source, which are not always exact repeats. Equal entries are not always repeated.
Tests used:
recombinant human IL-23 [1] = target: T1, recombinant human IL-23 (human, UniProt P29460 23-328); experiment: cell-based or functional assay
T1 sequence 1: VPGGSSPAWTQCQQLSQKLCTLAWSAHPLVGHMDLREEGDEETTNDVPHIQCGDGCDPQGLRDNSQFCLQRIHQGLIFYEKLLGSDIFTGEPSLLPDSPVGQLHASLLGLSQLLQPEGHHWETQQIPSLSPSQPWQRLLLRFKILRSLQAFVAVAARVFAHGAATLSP
T1 sequence 2: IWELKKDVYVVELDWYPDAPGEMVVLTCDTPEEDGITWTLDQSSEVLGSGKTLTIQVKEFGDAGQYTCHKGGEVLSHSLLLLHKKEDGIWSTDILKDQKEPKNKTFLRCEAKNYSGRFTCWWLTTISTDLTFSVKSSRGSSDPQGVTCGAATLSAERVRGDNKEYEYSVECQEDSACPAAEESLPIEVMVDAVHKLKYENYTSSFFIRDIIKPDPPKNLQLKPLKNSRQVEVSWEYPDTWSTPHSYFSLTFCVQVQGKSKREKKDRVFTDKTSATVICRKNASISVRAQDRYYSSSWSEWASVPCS

recombinant human IL-23 [2] = target: T1, recombinant human IL-23; experiment: BLI, Fortebio Octet; hybridoma-derived antibody
Description: Kinetics and binding affinities were measured using the Fortebio OCTET® (Fortebio, Menlo Park, Calif.) using material generated from hybridoma following single column purification.

[3] = target: T2, natural human IL-23 from activated THP-1 cells (human, UniProt P29460 23-328); experiment: cell-based or functional assay
T2 sequence 1: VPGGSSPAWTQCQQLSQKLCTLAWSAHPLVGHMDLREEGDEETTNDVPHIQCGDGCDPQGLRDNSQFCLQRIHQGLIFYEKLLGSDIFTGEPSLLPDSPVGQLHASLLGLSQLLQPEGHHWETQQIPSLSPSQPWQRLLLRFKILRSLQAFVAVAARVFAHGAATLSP
T2 sequence 2: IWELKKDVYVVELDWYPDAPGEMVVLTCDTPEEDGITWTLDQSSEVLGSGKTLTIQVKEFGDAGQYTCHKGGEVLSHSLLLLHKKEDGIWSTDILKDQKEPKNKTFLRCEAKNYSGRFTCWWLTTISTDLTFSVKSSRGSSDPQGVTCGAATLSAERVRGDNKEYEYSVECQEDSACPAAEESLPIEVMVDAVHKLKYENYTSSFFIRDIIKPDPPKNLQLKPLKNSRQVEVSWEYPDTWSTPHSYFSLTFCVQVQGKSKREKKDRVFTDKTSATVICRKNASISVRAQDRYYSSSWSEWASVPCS

Row | Binder | IC50, IL-23 stimulated IL-17 production from mouse splenocytes (recombinant human IL-23 [1]) | Kd (recombinant human IL-23 [2]) | koff (recombinant human IL-23 [2]) | kon (recombinant human IL-23 [2]) | IC50, IL-23 stimulated IL-17 production from mouse splenocytes [3]
1 | 73H10 (antibody, V domains shown, Mouse monoclonal antibody from hybridoma; also called 73H10Vk; 73H10VH) VH: EVQLQQSGPELVKPGASVKMSCKASGYTFTRYVMHWVKQKPGQGLEWIGYINPYNDVTKYNEKFKGKATLTSDRSSSTAYMKLSSLTSEDSAVYYCARNWDVPYWGQGTLITVSA VL: DIQMTQSPVFLSASVGETVTITCRASENIDSYLAWYQQKQGKSPQLLVFAARNLADGVPSRFSGSGSGTQYSLKINRMQSEDVARYYCQHYYSTPFTFGSGTKLEIE | 1410 pM | 99.2 pM | 5.24e-06 s⁻¹ | 52900 M⁻¹ s⁻¹ | –
2 | 74H3 (antibody, V domains shown, Mouse monoclonal antibody from hybridoma; also called 74H3Vk; 74H3VH) VH: EVQLQQSGPELVKPGASVKMSCKASGYTFTRYLMHWVKQKPGQGLEWIGYINPYNDGTKYNERFKGKATLTSDKSSSTAYMELSSLTSEDSAVYYCARNWDVPYWGQGTLVTVSA VL: DIQMTQSPASLSASVGETVIFTCRASENIDSYLAWYQQKQGKSPQLLVYAATNLADGVPSRFSGSGSGTQYSLKINSLQSEDVARYYCLHYYSTPFTFGSGTELEIK | 1350 pM | 68.3 pM | 2.09e-06 s⁻¹ | 30600 M⁻¹ s⁻¹ | –
3 | 15C11 (antibody, V domains shown, Mouse monoclonal antibody from hybridoma; also called 15C11vk; 15C11vh) VH: EVQLQQSGPVLVKPGASVKMSCKASGYTFTDYYMNWVKQSHGKSLEWIGVIIPYNGGTSYNQKFKGKATLTVDKSSSTAYMELNSLTSEDSAVYYCARDGHRWYFDVWGTGTTVTVSS VL: DVVMTQTPLSLPVSLGDQASISCRSSQSLVHSNGNTYLHWYLQKPGQSPKLLIYKVSNRFSGVPDRFSGSGSGTDFTLKINRVEAEDLGVYFCSQSTHVPYTFGGGTQLEIK | 126 pM | 26 pM | 1.07e-05 s⁻¹ | 411000 M⁻¹ s⁻¹ | 232 pM
4 | 43F5 (antibody, V domains shown, Mouse monoclonal antibody from hybridoma; also called 43F5vk; 43F5vh) VH: EVQLQQSGPELVKPGASVKISCRASGYSFTGYYMNWVKQSPEKSLEWIGEIIPTTGGTSYNQKFKAKATLTVDKSSSTAYMQLKSLTSEDSAVYYCARESGGFYWYFDVWGTGTTVTVSS VL: DVVMTQSPLSLPVSLGDQASISCRSSQSLVHSNGNTYLHWYLLKPGQSPKLLIYKVSNRFSGVPDRFSGSGSGTDFTLKISRVEAEDLGVYFCSQSTHVPYTFGGGTKLEIK | – | 34.6 pM | 5.96e-06 s⁻¹ | 172000 M⁻¹ s⁻¹ | 8000 pM
5 | 27G8 (antibody, V domains shown, Mouse monoclonal antibody from hybridoma; also called 27G8vk; 27G8vh) VH: QVQLQQSDAELVKPGASVKISCKVSGYTFTDHTIHWMKQRPEQGLEWIGYIYPRDGYPKFNEKFKGKATLTADKSSSTAYMQLNSLTSEDSAVYFCARRPPYYAMDYWGQGTSVAVSS VL: DIVLTQSPASLAVSLGQRATISCRASKSVSTSGYSYIHWYQQKPGQPPKFLIYLASNLDSGVPARFSGSGSGTDFTLNIHPVEEEDAATYYCQHSRELPYTFGGGTKLEIK | 235 pM | 27.2 pM | 4.26e-06 s⁻¹ | 157000 M⁻¹ s⁻¹ | 5000 pM
6 | 26F7 (antibody, V domains shown, Mouse monoclonal antibody from hybridoma; also called 26F7Vk; 26F7VH) VH: EVQLQQSGPELVKPGASVKISCKASGYTFTDYYMNWVRQSHGESLEWIGDFNHNNDVITYNPKFKGKVTLTVEKSSTTAYMELRSLSSEDSAVYYCARGLRGYYAMDYWGQGTSVTVSS VL: DIVLTQSPASLAVSLGQRATISCRASKSVRFSDYFYMHWYQQKPGQPPKLLIYLASNLESGVPARFSGSGSGTDFTLNIHPVEEEDAATYYCQNSRELPYTFGGGTKLEIK | 27 pM | 28.1 pM | 1.34e-05 s⁻¹ | 476000 M⁻¹ s⁻¹ | –
7 | 18C4 (antibody, V domains shown, Mouse monoclonal antibody from hybridoma; also called 18C4vk; 18C4vh) VH: EVQLQQSGPEVVKPGASVKMSCKASGYTFTSSVIHWVKQKAGQGLEWIGYINPYNDGTKYNEKFKGKATLTSDRSSSTAYMELSSLTSEDSAVYYCTRRLDEAYWGQGTLVTVSA VL: DIVMTQSPATLSVTPGDRVSLSCRASQSISEYLHWYQQKSHESPRLLIKYASQSISGIPSRFSGSGSGSDFTLSINSVEPEDVGVYYCQNGHSFPFTFGSGTKLEIK | 471 pM | 5.57 pM | 2.14e-06 s⁻¹ | 384000 M⁻¹ s⁻¹ | –
8 | 18E5 (antibody, V domains shown, Mouse monoclonal antibody from hybridoma; also called 18E5vk; 18E5vh) VH: EVQLQQSGPELVKPGAAVKMSCKASGYTFTRYLIHWVKQKPGQGLEWIGYINPYNDGTKYNEKFKGKATLTSDKSSSTAYMELSSLTSEDSAVYYCTSNWDLDYWGQGTTLTVSS VL: DIVMTQSPATLSVTPGDRVSLSCRASQSISDYLYWYQQKSHESPRLLIKFASQSISGIPSRFTGSGSGSDFTLSIDSVEPDDVGVFFCQNGHSFPFTFGGGTKLEIK | – | 7.93 pM | 2.61e-06 s⁻¹ | 329000 M⁻¹ s⁻¹ | 9 pM and 13 pM
9 | Chimeric 24A5 (antibody, V domains shown) VH: EVQLQQSGPELVKPGASVKMSCKASGYTFTTSIMHWVKQKPGQGLEWIGYINPYDDVTKYNEKFKGKATLTSDKSSSTAYMELSSLTSEDSAVYYCVRRWDEAYWGQGTLVTVSA VL: DIVMTQSPATLSVTPGNRVSLSCRASQSISDYLHWYQQKSHESPRLLIKYASQSISGIPSRFSGSGSGSNFTLSINSVEPEDVGVYYCQNGHSFPFTFGSGTKLEIK | 404 pM | – | – | – | 95 pM and 102 pM
10 | Chimeric 22E2 (antibody, V domains shown) VH: EVQLQQSGPELVKPGASVKMSCKASGYTFTSSIIHWVKQRPGQGLEWIGYINPYDDVTKYNEKFKGKATLTSDKSSSTAYMELSSLTSEDSAVYYCARRWDESYWGQGTLVTVSA VL: DIVMTQSPATLSVTPGDRVSLSCRASQSISVYLHWYQQKSPESPRLLIKYASQSISGIPSRFSGSGSGSDFTLSINSVEPEDVGVYYCQNGHSFPFTFGSGTKLEIK | 100 pM | – | – | – | –
11 | 24A5 (antibody, V domains shown, Mouse monoclonal antibody from hybridoma; also called 24A54vk; 24A5vh) VH: EVQLQQSGPELVKPGASVKMSCKASGYTFTTSIMHWVKQKPGQGLEWIGYINPYDDVTKYNEKFKGKATLTSDKSSSTAYMELSSLTSEDSAVYYCVRRWDEAYWGQGTLVTVSA VL: DIVMTQSPATLSVTPGNRVSLSCRASQSISDYLHWYQQKSHESPRLLIKYASQSISGIPSRFSGSGSGSNFTLSINSVEPEDVGVYYCQNGHSFPFTFGSGTKLEIK | 22 pM and 37 pM | 22.6 pM | 4.57e-06 s⁻¹ | 202000 M⁻¹ s⁻¹ | 85 pM and 31 pM
12 | 18D3 (antibody, V domains shown, Mouse monoclonal antibody from hybridoma; also called 18D3vk; 18D3vh) VH: EVQLQQSGPELVKPGASVKMSCKASGYTFTRYLIHWVKQKPGQGLEWIGYINPYNDGTKYNEKFKGKATLTSDKSSSTAYMELSSLTSEDSAVYYCTSNWDLDYWGQGTTLTVSS VL: DIVMTQSPATLSVTPGDRVSLSCRASQSISDYLYWYQQKSHESPRLLIKFASQSISGIPSRFTGSGSGSDFTLSIDSVEPDDVGVFFCQNGHSFPFTFGGGTKLEIK | 234 pM | 6.78 pM | 2.16e-06 s⁻¹ | 319000 M⁻¹ s⁻¹ | –
13 | 22E2 (antibody, V domains shown, Mouse monoclonal antibody from hybridoma; also called 22E2vk; 22E2vh) VH: EVQLQQSGPELVKPGASVKMSCKASGYTFTSSIIHWVKQRPGQGLEWIGYINPYDDVTKYNEKFKGKATLTSDKSSSTAYMELSSLTSEDSAVYYCARRWDESYWGQGTLVTVSA VL: DIVMTQSPATLSVTPGDRVSLSCRASQSISVYLHWYQQKSPESPRLLIKYASQSISGIPSRFSGSGSGSDFTLSINSVEPEDVGVYYCQNGHSFPFTFGSGTKLEIK | 61 pM and 130 pM | 1020 pM | 0.000353 s⁻¹ | 346000 M⁻¹ s⁻¹ | –
14 | 20E8 (antibody, V domains shown, Mouse monoclonal antibody from hybridoma; also called 20E8vk; 20E8vh) VH: EVQLQQSGPELVKPGASVKMSCKASGYTFTSSVMHWVKQKAGQGLEWIGYINPYNDGTQYNEKFKGKATLTSDKFSSTAYMELSSLTSEDSAVYYCTRRLDEAYWGQGTLVTVSA VL: DIVMTQSPATLSVTPGDRVSLSCRASQSISEYLHWYQQKSHESPRLLIKYASQSISGIPSRFSGSGSGSDFTLSINSVEPEDVGVYYCQNGHSFPFTFGSGTKLEIK | – | 638 pM | 0.000269 s⁻¹ | 421000 M⁻¹ s⁻¹ | 438 pM and 561 pM
15 | 2D1 (antibody, V domains shown, Mouse monoclonal antibody from hybridoma; also called 2D1vk; 2D1vh) VH: QVQLKESGPGLVAPSQSLSITCTVSGFSLTTYAISWVRQSPGKGLEWLGVIWTGGGTKYNSALKSRLSISKDNSKSQVFLKMNSLQTDDTARYYCARKDYNYGGAMDYWGQGTSVTVSS VL: DIVLTQSPGSLAVSLGQRATISCRTSESVYSYGQNFIHWYQQKPGQPPKLLIYRASNLESGIPARFSGSGSRTDFTLTMNPVEADDVATYYCQQTNEDPYTFGGGTKLEIR | – | < 1 pM | < 1e-06 s⁻¹ | – | 2340 pM and 1910 pM and 1600 pM

Source: US20210317201A1 (Boehringer Ingelheim, published 2021)
